B1: Protein deacetylase HDAC6 (Homo sapiens), Q9UBN7 (parent)
chain: MTSTGQDSTTTRQRRSRQNPQSPPQDSSVTSKRNIKKGAVPRSIPNLAEVKKKGKMKKLGQAMEEDLIVGLQGMDLNLEAEALAGTGLVLDEQLNEFHCLWDDSFPEGPERLHAIKEQLIQEGLLDRCVSFQARFAEKEELMLVHSLEYIDLMETTQYMNEGELRVLADTYDSVYLHPNSYSCACLASGSVLRLVDAVLGAEIRNGMAIIRPPGHHAQHSLMDGYCMFNHVAVAARYAQQKHRIRRVLIVDWDVHHGQGTQFTFDQDPSVLYFSIHRYEQGRFWPHLKASNWSTTGFGQGQGYTINVPWNQVGMRDADYIAAFLHVLLPVALEFQPQLVLVAAGFDALQGDPKGEMAATPAGFAQLTHLLMGLAGGKLILSLEGGYNLRALAEGVSASLHTLLGDPCPMLESPGAPCRSAQASVSCALEALEPFWEVLVRSTETVERDNMEEDNVEESEEEGPWEPPVLPILTWPVLQSRTGLVYDQNMMNHCNLWDSHHPEVPQRILRIMCRLEELGLAGRCLTLTPRPATEAELLTCHSAEYVGHLRATEKMKTRELHRESSNFDSIYICPSTFACAQLATGAACRLVEAVLSGEVLNGAAVVRPPGHHAEQDAACGFCFFNSVAVAARHAQTISGHALRILIVDWDVHHGNGTQHMFEDDPSVLYVSLHRYDHGTFFPMGDEGASSQIGRAAGTGFTVNVAWNGPRMGDADYLAAWHRLVLPIAYEFNPELVLVSAGFDAARGDPLGGCQVSPEGYAHLTHLLMGLASGRIILILEGGYNLTSISESMAACTRSLLGDPPPLLTLPRPPLSGALASITETIQVHRRYWRSLRVMKVEDREGPSSSKLVTKKAPQPAKPRLAERMTTREKKVLEAGMGKVTSASFGEESTPGQTNSETAVVALTQDQPSEAATGGATLAQTISEAAIGGAMLGQTTSEEAVGGATPDQTTSEETVGGAILDQTTSEDAVGGATLGQTTSEEAVGGATLAQTTSEAAMEGATLDQTTSEEAPGGTELIQTPLASSTDHQTPPTSPVQGTTPQISPSTLIGSLRTLELGSESQGASESQAPGEENLLGEAAGGQDMADSMLMQGSRGLTDQAIFYAVTPLPWCPHLVAVCPIPAAGLDVTQPCGDCGTIQENWVCLSCYQVYCGRYINGHMLQHHGNSGHPLVLSYIDLSAWCYYCQAYVHHQALLDVKNIAHQNKFGEDMPHPH

Variants of: B1
Conditions: with hdac9_mouse Hdac9, Q99N13
Chain of hdac9_mouse Hdac9, Q99N13 (Q99N13 whole entry): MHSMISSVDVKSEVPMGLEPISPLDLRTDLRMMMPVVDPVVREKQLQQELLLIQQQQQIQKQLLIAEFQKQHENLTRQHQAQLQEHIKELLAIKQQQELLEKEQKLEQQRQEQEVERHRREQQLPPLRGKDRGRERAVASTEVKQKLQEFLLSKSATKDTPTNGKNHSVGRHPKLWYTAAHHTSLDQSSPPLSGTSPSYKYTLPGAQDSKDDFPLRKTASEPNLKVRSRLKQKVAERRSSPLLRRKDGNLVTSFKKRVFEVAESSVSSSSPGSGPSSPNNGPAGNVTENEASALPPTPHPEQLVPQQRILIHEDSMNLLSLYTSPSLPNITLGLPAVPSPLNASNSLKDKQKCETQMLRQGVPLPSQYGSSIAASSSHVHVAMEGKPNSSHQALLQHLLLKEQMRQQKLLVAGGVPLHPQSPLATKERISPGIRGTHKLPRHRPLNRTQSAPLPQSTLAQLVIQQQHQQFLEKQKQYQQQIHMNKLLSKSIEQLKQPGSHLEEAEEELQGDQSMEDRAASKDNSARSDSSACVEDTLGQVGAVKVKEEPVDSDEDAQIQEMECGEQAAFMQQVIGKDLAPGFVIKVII

Variant | effect of a mutation on the interaction
H611A | decreasing interaction strength
H216A | decreasing interaction strength
H216A;H611A | disrupting interaction strength

From IntAct's records for PubMed 25873389
